Experimental findings from US20220074941A1, “HSP90 COMBINATION THERAPY” (Sloan-Kettering Institute for Cancer Research, priority 2011, published 2022) are described below.

B1: NUP85 (protein, UniProt Q9BW27 1-656, looked up)
Nuclear pore complex protein …: MEELDGEPTVTLIPGVNSKKNQMYFDWGPGEMLVCETSFNKKEKSEMVPSCPFIYIIRKDVDVYSQILRKLFNESHGIFLGLQRIDEELTGKSRKSQLVRVSKNYRSVIRACMEEMHQVAIAAKDPANGRQFSSQVSILSAMELIWNLCEILFIEVAPAGPLLLHLLDWVRLHVCEVDSLSADVLGSENPSKHDSFWNLVTILVLQGRLDEARQMLSKEADASPASAGICRIMGDLMRTMPILSPGNTQTLTELELKWQHWHEECERYLQDSTFATSPHLESLLKIMLGDEAALLEQKELLSNWYHFLVTRLLYSNPTVKPIDLHYYAQSSLDLFLGGESSPEPLDNILLAAFEFDIHQVIKECSIALSNWWFVAHLTDLLDHCKLLQSHNLYFGSNMREFLLLEYASGLFAHPSLWQLGVDYFDYCPELGRVSLELHIERIPLNTEQKALKVLRICEQRQMTEQVRSICKILAMKAVRNNRLGSALSWSIRAKDAAFATLVSDRFLRDYCERGCFSDLDLIDNLGPAMMLSDRLTFLGKYREFHRMYGEKRFADAASLLLSLMTSRIAPRSFWMTLLTDALPLLEQKQVIFSAEQTYELMRCLEDLTSRRPVHGESDTEQLQDDDIETTKVEMLRLSLARNLARAIIREGSLEGS
B2: CPNE3 (protein, UniProt O75131 1-537, looked up)
Copine-3: MAAQCVTKVALNVSCANLLDKDIGSKSDPLCVLFLNTSGQQWYEVERTERIKNCLNPQFSKTFIIDYYFEVVQKLKFGVYDIDNKTIELSDDDFLGECECTLGQIVSSKKLTRPLVMKTGRPAGKGSITISAEEIKDNRVVLFEMEARKLDNKDLFGKSDPYLEFHKQTSDGNWLMVHRTEVVKNNLNPVWRPFKISLNSLCYGDMDKTIKVECYDYDNDGSHDLIGTFQTTMTKLKEASRSSPVEFECINEKKRQKKKSYKNSGVISVKQCEITVECTFLDYIMGGCQLNFTVGVDFTGSNGDPRSPDSLHYISPNGVNEYLTALWSVGLVIQDYDADKMFPAFGFGAQIPPQWQVSHEFPMNFNPSNPYCNGIQGIVEAYRSCLPQIKLYGPTNFSPIINHVARFAAAATQQQTASQYFVLLIITDGVITDLDETRQAIVNASRLPMSIIIVGVGGADFSAMEFLDGDGGSLRSPLGEVAIRDIVQFVPFRQFQNAPKEALAQCVLAEIPQQVVGYFNTYKLLPPKNPATKQQKQ
B3: TPP1 (protein, UniProt O14773 196-563, looked up)
Tripeptidyl-peptidase 1: LHLGVTPSVIRKRYNLTSQDVGSGTSNNSQACAQFLEQYFHDSDLAQFMRLFGGNFAHQASVARVVGQQGRGRAGIEASLDVQYLMSAGANISTWVYSSPGRHEGQEPFLQWLMLLSNESALPHVHTVSYGDDEDSLSSAYIQRVNTELMKAAARGLTLLFASGDSGAGCWSVSGRHQFRPTFPASSPYVTTVGGTSFQEPFLITNEIVDYISGGGFSNVFPRPSYQEEAVTKFLSSSPHLPPSSYFNASGRAYPDVAALSDGYWVVSNRVPIPWVSGTSASTPVFGGILSLINEHRILSGRPPLGFLNPRLYQQHGAGLFDVTRGCHESCLDEEVEGQGFCSGPGWDPVTGWGTPNFPALLKTLLNP
B4: SDCCAG1 (protein, UniProt O60524 1-1076, looked up)
Ribosome quality control …: MKSRFSTIDLRAVLAELNASLLGMRVNNVYDVDNKTYLIRLQKPDFKATLLLESGIRIHTTEFEWPKNMMPSSFAMKCRKHLKSRRLVSAKQLGVDRIVDFQFGSDEAAYHLIIELYDRGNIVLTDYEYVILNILRFRTDEADDVKFAVRERYPLDHARAAEPLLTLERLTEIVASAPKGELLKRVLNPLLPYGPALIEHCLLENGFSGNVKVDEKLETKDIEKVLVSLQKAEDYMKTTSNFSGKGYIIQKREIKPSLEADKPVEDILTYEEFHPFLFSQHSQCPYIEFESFDKAVDEFYSKIEGQKIDLKALQQEKQALKKLDNVRKDHENRLEALQQAQEIDKLKGELIEMNLQIVDRAIQVVRSALANQIDWTEIGLIVKEAQAQGDPVASAIKELKLQTNHVTMLLRNPYLLSEEEDDDVDGDVNVEKNETEPPKGKKKKQKNKQLQKPQKNKPLLVDVDLSLSAYANAKKYYDHKRYAAKKTQKTVEAAEKAFKSAEKKTKQTLKEVQTVTSIQKARKVYWFEKFLWFISSENYLIIGGRDQQQNEIIVKRYLTPGDIYVHADLHGATSCVIKNPTGEPIPPRTLTEAGTMALCYSAAWDARVITSAWWVYHHQVSKTAPTGEYLTTGSFMIRGKKNFLPPSYLMMGFSFLFKVDESCVWRHQGERKVRVQDEDMETLASCTSELISEEMEQLDGGDTSSDEDKEEHETPVEVELMTQVDQEDITLQSGRDELNEELIQEESSEDEGEYEEVRKDQDSVGEMKDEGEETLNYPDTTIDLSHLQPQRSIQKLASKEESSNSSDSKSQSRRHLSAKERREMKKKKLPSDSGDLEALEGKDKEKESTVHIETHQNTSKNVAAVQPMKRGQKSKMKKMKEKYKDQDEEDRELIMKLLGSAGSNKEEKGKKGKKGKTKDEPVKKQPQKPRGGQRVSDNIKKETPFLEVITHELQDFAVDDPHDDKEEQDLDQQGNEENLFDSLTGQPHPEDVLLFAIPICAPYTTMTNYKYKVKLTPGVQKKGKAAKTALNSFMHSKEATAREKDLFRSVKDTDLSRNIPGKVKVSAPNLLNVKRK
B5: NUP54 (protein, UniProt Q7Z3B4 1-507, looked up)
Nucleoporin p54: MAFNFGAPSGTSGTAAATAAPAGGFGGFGTTSTTAGSAFSFSAPTNTGTTGLFGGTQNKGFGFGTGFGTTTGTSTGLGTGLGTGLGFGGFNTQQQQQTTLGGLFSQPTQAPTQSNQLINTASALSAPTLLGDERDAILAKWNQLQAFWGTGKGYFNNNIPPVEFTQENPFCRFKAVGYSCMPSNKDEDGLVVLVFNKKETEIRSQQQQLVESLHKVLGGNQTLTVNVEGTKTLPDDQTEVVIYVVERSPNGTSRRVPATTLYAHFEQANIKTQLQQLGVTLSMTRTELSPAQIKQLLQNPPAGVDPIIWEQAKVDNPDSEKLIPVPMVGFKELLRRLKVQDQMTKQHQTRLDIISEDISELQKNQTTSVAKIAQYKRKLMDLSHRTLQVLIKQEIQRKSGYAIQADEEQLRVQLDTIQGELNAPTQFKGRLNELMSQIRMQNHFGAVRSEERYYIDADLLREIKQHLKQQQEGLSHLISIIKDDLEDIKLVEHGLNETIHIRGGVFS
B6: NCKAP1 (protein, UniProt Q9Y2A7 2-1128, looked up)
Nck-associated protein 1: SRSVLQPSQQKLAEKLTILNDRGVGMLTRLYNIKKACGDPKAKPSYLIDKNLESAVKFIVRKFPAVETRNNNQQLAQLQKEKSEILKNLALYYFTFVDVMEFKDHVCELLNTIDVCQVFFDITVNFDLTKNYLDLIITYTTLMILLSRIEERKAIIGLYNYAHEMTHGASDREYPRLGQMIVDYENPLKKMMEEFVPHSKSLSDALISLQMVYPRRNLSADQWRNAQLLSLISAPSTMLNPAQSDTMPCEYLSLDAMEKWIIFGFILCHGILNTDATALNLWKLALQSSSCLSLFRDEVFHIHKAAEDLFVNIRGYNKRINDIRECKEAAVSHAGSMHRERRKFLRSALKELATVLSDQPGLLGPKALFVFMALSFARDEIIWLLRHADNMPKKSADDFIDKHIAELIFYMEELRAHVRKYGPVMQRYYVQYLSGFDAVVLNELVQNLSVCPEDESIIMSSFVNTMTSLSVKQVEDGEVFDFRGMRLDWFRLQAYTSVSKASLGLADHRELGKMMNTIIFHTKMVDSLVEMLVETSDLSIFCFYSRAFEKMFQQCLELPSQSRYSIAFPLLCTHFMSCTHELCPEERHHIGDRSLSLCNMFLDEMAKQARNLITDICTEQCTLSDQLLPKHCAKTISQAVNKKSKKQTGKKGEPEREKPGVESMRKNRLVVTNLDKLHTALSELCFSINYVPNMVVWEHTFTPREYLTSHLEIRFTKSIVGMTMYNQATQEIAKPSELLTSVRAYMTVLQSIENYVQIDITRVFNNVLLQQTQHLDSHGEPTITSLYTNWYLETLLRQVSNGHIAYFPAMKAFVNLPTENELTFNAEEYSDISEMRSLSELLGPYGMKFLSESLMWHISSQVAELKKLVVENVDVLTQMRTSFDKPDQMAALFKRLSSVDSVLKRMTIIGVILSFRSLAQEALRDVLSYHIPFLVSSIEDFKDHIPRETDMKVAMNVYELSSAAGLPCEIDPALVVALSSQKSENISPEEEYKIACLLMVFVAVSLPTLASNVMSQYSPAIEGHCNNIHCLAKAINQIAAALFTIHKGSIEDRLKEFLALASSSLLKIGQETDKTTTRNRESVYLLLDMIVQESPFLTMDLLESCFPYVLLRNAYHAVYKQSVTSSA

The test system of the first assay is Hsp90 complexes in Mia-PaCa-2 cell extract. The assay can be described thus: Nano-LC-MS/MS of PU-beads pull-downs. It counts as binding, human. Conditions: protein identified in PU-beads pull-down of Mia-PaCa-2 cell extract; QSTAR-Elite QTof MS. The method, boiled down: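 Lysates pre-cleared overnight at 4 °C with control beads underwent PU-bead pull-down; bound proteins were SDS-eluted, gel-separated, digested and analyzed by nano-LC-MS/MS on a QTof. Identifications used significance p<0.05, 0.4 Da tolerances and one missed cleavage; unique peptide (spectral) counts and sequence coverage were reported.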
Take B1: the “Number of Assigned Spectra, Mia-Paca 2” value stood at 0.

On to B2, for which the “Number of Assigned Spectra, Mia-Paca 2” value was determined as 0.

As to B3, the “Number of Assigned Spectra, Mia-Paca 2” value is reported as 1.

With B4, the “Number of Assigned Spectra, Mia-Paca 2” value was 3.

B5: the “Number of Assigned Spectra, Mia-Paca 2” value is listed as 0.

Turning to B6, the “Number of Assigned Spectra, Mia-Paca 2” value is 2.

The next assay deals with Hsp90 complexes in K562 cell extract. The assay can be described thus: Nano-LC-MS/MS of PU-beads pull-downs. It counts as binding. Conditions: protein identified in PU-beads pull-down of K562 cell extract, Prep 1; QSTAR-Elite QTof MS. The method in brief:
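Lysates pre-cleared overnight at 4 °C with control beads, then pulled down with PU-beads or control beads; eluted proteins (2% SDS boil) gel-separated and analysed by nano LC-MS/MS on a QTof. Mascot identification (p<0.05), spectral counts and sequence coverage evaluated in Scaffold.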
On to B1, for which the “Number of Assigned Spectra, K562 Prep 1” value was 14.

In the case of B2, the “Number of Assigned Spectra, K562 Prep 1” value was 4.

Take B3: the “Number of Assigned Spectra, K562 Prep 1” value was 4.

Take B4: the “Number of Assigned Spectra, K562 Prep 1” value was determined as 2.

Turning to B5, the “Number of Assigned Spectra, K562 Prep 1” value came to 1.

In the case of B6, the “Number of Assigned Spectra, K562 Prep 1” value is 5.

Still in this assay, the particulars now being: protein identified in PU-beads pull-down of K562 cell extract, Prep 2; QSTAR-Elite QTof MS.
As to B1, the “Number of Assigned Spectra, K562 Prep 2” value is on record as 2.

B2: the “Number of Assigned Spectra, K562 Prep 2” value is listed as 5.

Take B3: the “Number of Assigned Spectra, K562 Prep 2” value is given as 1.

Regarding B4, the “Number of Assigned Spectra, K562 Prep 2” value is 2.

As for B5, the “Number of Assigned Spectra, K562 Prep 2” value is reported as 7.

Take B6: the “Number of Assigned Spectra, K562 Prep 2” value worked out at 1.
